Experimental findings from PMC3050627 are described below.

For the series, the target named is His-MAFB (UniProt Q9Y5Q3 1-323). Description: EMSA. On the technique in general: In EMSA bound probe runs differently from free probe, usually more slowly.
Chain of His-MAFB (Q9Y5Q3 whole entry): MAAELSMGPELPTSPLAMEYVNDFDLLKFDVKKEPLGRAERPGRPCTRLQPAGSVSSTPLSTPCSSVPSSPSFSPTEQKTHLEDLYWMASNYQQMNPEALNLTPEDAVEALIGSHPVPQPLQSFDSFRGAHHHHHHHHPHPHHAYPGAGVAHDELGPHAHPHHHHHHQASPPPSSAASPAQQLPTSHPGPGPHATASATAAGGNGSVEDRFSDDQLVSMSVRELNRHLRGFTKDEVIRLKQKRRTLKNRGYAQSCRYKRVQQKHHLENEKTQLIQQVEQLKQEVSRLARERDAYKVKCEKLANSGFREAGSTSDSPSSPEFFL

B1: MARE (dsDNA)
DNA 1: CATTTCTGCTGACTCAGCAACTTTA
DNA 2: TAAAGTTGCTGAGTCAGCAGAAATG
Turning to B1, the binding result is “binds”.

B2: P31 (PRDIII-PRDI) (dsDNA)
DNA 1: GAAAACTGAAAGGGAGAAGTGAAAGTG
DNA 2: CACTTTCACTTCTCCCTTTCAGTTTTC
As to B2, the binding result was “no binding”.
